Test system: human recombinant carboxylesterases
Experiment: In vitro metabolic stability in human recombinant carboxylesterases (rate of metabolite formation, LC-MS/MS)
Assay type: in vitro ADME
Details: 1 μM test compound, 0.1 mg/mL human recombinant carboxylesterase mixture, pH=6.0, 37° C., triplicate
Protocol: In Vitro Metabolic Stability in Human Recombinant Carboxylesterases
Human recombinant carboxylesterases were purchased from a commercial vendor (BD Gentest™, Bedford, Mass.). All metabolic stability experiments were performed in triplicate in 96-well plate format. The final incubation mixture contained 1 μM test compound and 0.1 mg/mL human recombinant carboxylesterase mixture in a final volume of 0.5 mL 0.1M potassium phosphate buffer (pH=6.0). […] Following a pre-incubation at 37° C., test article was added to initiate the reaction. At designated time points (typically 120 minutes to capture the linear range of metabolite formation), 0.05 mL aliquots were removed from the incubation mixtures using a clean pipet tip and immediately placed in organic solvent to stop any esterase activity.
The samples were analyzed by liquid chromatography with mass spectrometry (LC-MS/MS) detection to determine the metabolite concentrations resulting from the metabolism of the hybrid compounds. Internal standards were used to compensate for variability from sample processing, chromatographic elution, mass spectrometer response and ion suppression by matrix components.

C/C=C/C[C@@H](C)C(OC(=O)OCOC(=O)CCC(=O)OCCOCCOCCOC(=O)CCC(=O)OCC(=O)[C@@]1(O)CCC2C3CCC4=CC(=O)C=C[C@]4(C)C3[C@@H](O)C[C@@]21C)C1C(=O)NC(CC)C(=O)N(C)CC(=O)N(C)[C@@H](CC(C)C)C(=O)NC(C(C)C)C(=O)N(C)C(CC(C)C)C(=O)NC(C)C(=O)NC(C)C(=O)N(C)C(CC(C)C)C(=O)N(C)C(CC(C)C)C(=O)N(C)C(C(C)C)C(=O)N1C (relative stereo) [Compound 5]
Rate of formation Metabolite 2 (Cyclosporine A): 35.6 ± 0.63 nM/min/mg
Rate of formation Metabolite 1 (Prednisolone): 84.4 ± 7.52 nM/min/mg

C/C=C/C[C@@H](C)[C@@H](OC(=O)OCOC(=O)CCC(=O)OCCOCCOCCOCCOC(=O)CCC(=O)OCC(=O)[C@@]1(O)CCC2C3CCC4=CC(=O)C=C[C@]4(C)C3[C@@H](O)C[C@@]21C)C1C(=O)NC(CC)C(=O)N(C)CC(=O)N(C)[C@@H](CC(C)C)C(=O)NC(C(C)C)C(=O)N(C)C(CC(C)C)C(=O)NC(C)C(=O)NC(C)C(=O)N(C)C(CC(C)C)C(=O)N(C)C(CC(C)C)C(=O)N(C)C(C(C)C)C(=O)N1C (relative stereo) [Compound 6]
Rate of formation Metabolite 2 (Cyclosporine A): 34.4 ± 3.85 nM/min/mg

C/C=C/C[C@@H](C)C(OC(=O)CN(C)C(=O)CNC(=O)OCOC(=O)CCC(=O)OCC(=O)[C@@]1(O)CCC2C3CCC4=CC(=O)C=C[C@]4(C)C3[C@@H](O)C[C@@]21C)C1C(=O)NC(CC)C(=O)N(C)CC(=O)N(C)[C@@H](CC(C)C)C(=O)NC(C(C)C)C(=O)N(C)C(CC(C)C)C(=O)NC(C)C(=O)N[C@@H](C)C(=O)N(C)[C@@H](CC(C)C)C(=O)N(C)C(CC(C)C)C(=O)N(C)C(C(C)C)C(=O)N1C (relative stereo) [Compound 7]
Rate of formation Metabolite 2 (Cyclosporine A): 1.31 ± 0.18 nM/min/mg
Rate of formation Metabolite 1 (Prednisolone): 4.26 ± 1.31 nM/min/mg

C/C=C/C[C@@H](C)[C@@H](OC(=O)OCOC(=O)CCC(=O)OCCOCCOCCOCCOC(=O)CCC(=O)OCC(=O)[C@@]1(O)[C@H](C)CC2C3CCC4=CC(=O)C=C[C@]4(C)[C@@]3(F)[C@@H](O)C[C@@]21C)C1C(=O)NC(CC)C(=O)N(C)CC(=O)N(C)[C@@H](CC(C)C)C(=O)NC(C(C)C)C(=O)N(C)C(CC(C)C)C(=O)NC(C)C(=O)NC(C)C(=O)N(C)C(CC(C)C)C(=O)N(C)C(CC(C)C)C(=O)N(C)C(C(C)C)C(=O)N1C (relative stereo) [Compound 20]
Rate of formation Metabolite 2 (Cyclosporine A): 13.9 ± 1.11 nM/min/mg
Rate of formation Metabolite 1 (Dexamethasone): 12.0 ± 0.88 nM/min/mg

C/C=C/C[C@@H](C)[C@@H](OC(=O)OCOC(=O)CCC(=O)OCCOCCOC(=O)CCC(=O)OCC(=O)[C@@]1(O)CCC2C3CCC4=CC(=O)C=C[C@]4(C)C3[C@@H](O)C[C@@]21C)C1C(=O)NC(CC)C(=O)N(C)CC(=O)N(C)[C@@H](CC(C)C)C(=O)NC(C(C)C)C(=O)N(C)C(CC(C)C)C(=O)NC(C)C(=O)NC(C)C(=O)N(C)C(CC(C)C)C(=O)N(C)C(CC(C)C)C(=O)N(C)C(C(C)C)C(=O)N1C (relative stereo) [Compound 21]
Rate of formation Metabolite 2 (Cyclosporine A): 21.6 ± 0.03 nM/min/mg

C/C=C/C[C@@H](C)[C@@H](OC(=O)OCOC(=O)CCC(=O)OCCOCCOCCOCCOCCOC(=O)CCC(=O)OCC(=O)[C@@]1(O)CCC2C3CCC4=CC(=O)C=C[C@]4(C)C3[C@@H](O)C[C@@]21C)C1C(=O)NC(CC)C(=O)N(C)CC(=O)N(C)[C@@H](CC(C)C)C(=O)NC(C(C)C)C(=O)N(C)C(CC(C)C)C(=O)NC(C)C(=O)NC(C)C(=O)N(C)C(CC(C)C)C(=O)N(C)C(CC(C)C)C(=O)N(C)C(C(C)C)C(=O)N1C (relative stereo) [Compound 22]
Rate of formation Metabolite 2 (Cyclosporine A): 46.5 ± 3.16 nM/min/mg
Rate of formation Metabolite 1 (Prednisolone): 38.4 ± 3.32 nM/min/mg

C/C=C/C[C@@H](C)[C@@H](OC(=O)OCOC(=O)CCC(=O)OCCOCCOCCOC(=O)CCC(=O)OCC(=O)[C@@]1(O)[C@H](C)CC2C3CCC4=CC(=O)C=C[C@]4(C)[C@@]3(F)[C@@H](O)C[C@@]21C)C1C(=O)NC(CC)C(=O)N(C)CC(=O)N(C)[C@@H](CC(C)C)C(=O)NC(C(C)C)C(=O)N(C)C(CC(C)C)C(=O)NC(C)C(=O)NC(C)C(=O)N(C)C(CC(C)C)C(=O)N(C)C(CC(C)C)C(=O)N(C)C(C(C)C)C(=O)N1C (relative stereo) [Compound 32]
Rate of formation Metabolite 2 (Cyclosporine A): 13.4 ± 1.31 nM/min/mg
Rate of formation Metabolite 1 (Dexamethasone): 20.4 ± 3.18 nM/min/mg
